The values that follow come from the DeepSol protein solubility set.

The nature of this series: soluble on expression in E. coli; label from the status in PepcDB or PDB records.
Take “MTLPLNPAMAATFPPPVMEARRWIQGLSFPADRPLLNLSQAAPVEPPPAELRAALAEAALHDPQAHLYGPVLGLPALRAEIAAQWSAAYGGRIEPAQVAITQGCNQAFCAIMATLAGAGDEVILPTPWYFNHKMWLDMQGVMAVPLPTGPCLLPDAEEAAALVGPRTRAIVLVSPNNPGGVEYPAATLEAFRDLARARGLALIVDETYRDFDSRTGAPHALFADPDWDGVLVHLYSFSKAYRLTGHRVGAVVASAARLAQIEKFLDTVAICPSQLGQIGALWGIRNLAQWVAGERAEILARRTAMVGGFSALDGWTLLGCGAYFAYVEHPFDTPSDRLAPRLVQEAGVLLLPGTMFQPEGSEAGARQFRMAFANVDQAGIAELFSRLAQVTD”: the “soluble on expression in E. coli” value is “not soluble”. The result for “MNDPMGETGFSRESAPEIVFSETDMAAAEQLMHLSEEETVSCSSSTGGDCGGGGGDKIKHEYVSSRIGNELNDGVRGNSILGVEKKRKRTVMKEKKFRSLESIYKGTKEIRD” reads “not soluble”; that for “MSLMKQNPILITGGTGTVGSRIASRLIKLGYRVRIASRKKGALADAEYVYFNWKYASSFTPALEQVKQIYLVAPVGVFDPAPYVLPFLKEAKRLGAKRVVMQSASVVSENGPVFGALHQAVREFPEWTVLRPSYFMQNFINVQHRMSIQTEGRITTASGEGKLGFIDADDIAETAVRALIDDVPHQTHHILTGPEALSYAEAAEIIGAAAGRRVEHVSISRSELQHKMEAGGLPADYAHFMAKLDEAISHGAEHRVTDTVKRVTGKEPRSLSEFAAAHAAYWTSFWTEEGGSHHHHHH”, “soluble”; that for “MSIQRFTPEFKAEAVRQVIERGYSVAEIAAGFGVSTHSLYKWVKAVTPDKSEKQASELLEAKSEILRLRAQMRRLEEERDILKKPSGSSHTAWRPLEHHHHHH”, “not soluble”.

In the case of “MGSDKIHHHHHHMSILNVEHLSHGFGDRAIFEDVSFRLLKGEHIGLVGANGEGKSTFMNIITGRLMPDEGKIEWAKKVRVGYLDQHTALEKGMTIGSVLSSAFDFLYDMENEMNDIYARLGDVDEDEMNKLMEEAGTIQDMLTMHDFYMIDAKVEEVARALGLLDLGLDKDVTDLSGGQRTKVLMGKLLLEKPDILLLDEPTNYLDVEHIEWLKRYLNDYENAFILISHDIPFLNSVVNLIYHMDNKKLDRYVGDYDKFMEVYEMKKAQLEAAYNKQQQEIKELKDFVARNKARVATRNMAMSRQKKLDKMDVIELAAEKPKPEFNFKTARTPGRYIFQTNGLVIGYDDPLSSALDLEMERGQKIVLTGANGIGKTTLLKSILGLIKPLSGSVTLGDYLEIGYFEQEMDQSVTTTCIEEIWNEFPAFSQYEVRSALAKCGLTTKHIESQVRVLSGGEQAKVRLCKLINRETNILLLDEPTNHLDVDAKDELKRALKEYKGSILMVCHEPDFYDGLATDVWDCSKWTTRL”, the “soluble on expression in E. coli” value is “not soluble”. Next, “MGSDKIHHHHHHMMTTVKDSTPAARELYLDLLVRILLNTIYQDPAINPGVRPMVVEPFNPKTRAIGKDWPTQAHTMVGQARLENLRQLSQQVLDDGIVGDFIETGVWRGGCCILMRGVLAANQIHDRKVYVADSFAGLPAPNVELYPRDTGWDLHEFKELAVSLQTVKDNFSRYGLLDEQVVFVEGMFSDTLPSLSAGPFALLRLDGDLYESTIVALNSLYPKLSRGGVVIIDDRALDPCRRAVIDFRDKHGITAPMQEVDWTGSWWRKE”: “not soluble”. Next, “ATQRFLIEKFSQEQIGENIVCRVICTTGQIPIRDLSADISQVLKEKRSIKKVWTFGRNPACDYHLGNISRLSNKHFQILLGEDGNLLLNDISTNGTWLNGQKVEKNSNQLLSQGDEITVGVGVESDILSLVIFINDKFKQCLEQNKVDRIR”: “soluble”. Next, “MINIETPTYYTATKKYELSFPSLETDLDADVVVIGGGFSGINTALELAEHGITDIVVLEARHLGFGGTGRNGGQIMAGIGHDLEKIRKDVGEDGLRAIFEISDLGADIIKGRIEKYAIDADFCHGYGYMGFNARQAKTLQAWEKEFRSLGSPHEIRYLHGAEVRQIIGSDAYGSALLHMGGGHVHSLNLLLGEAKALAGLGARIFEYSPALEVQYGERIRVRTAKGSVTANKLLWACDSFLNRLEPELHRTTINTYAFQMMTEPLPDELIQRISPIRGAYSDIRPVIDYYRVTNENRLLFGAATPFVERIPGDLKAWNRKLMLKIFPYLEHVRIDLAWGGPMACSANLFPQIGSLSGRPNAFFVQGYSGFGVTPSHIVCKVLAEGMSEGSARYDLLSSVRRIPIHGKDHFRPLLLSAGKTWHQLSGYWNGRR”: “not soluble”; “MSLSTVTMILGQSGTGKSTSLRNLDPSQTLLIQAIKKPLPFKSGNWKPANKENPAGSIFVCDSAATIVGAMKRTKRPVIVIDDFQYVMANEFMRRSAEKGFDKFTEIGRNAWDILVEAARLPDEVRVYVLSHVETTDDGRTKIKTIGRMLDEKITLEGMVSIVLKTVVQDGQHFFATRNNGSDTVKTPMGMFDADLIENDLAAVDTAIYQYYGLTEAEGHHHHHH”: “not soluble”. In the case of “MLVGHARKDITPTEPFYLLGYKTELRNQPAKGIHDHIYINALLFYDDKGNECFLATGDLLELEDIVAADIRQKISRKYGIAMDHVIIGVTHDHHSVRDYHRTWEFGKFSQTYYDFFVDSFVQAFEDCRETLTDVTVQYGQQEIFGFYSNRNHANKPSDNAVSVIKFIADGHAVAGIVNMAVHSTVLGPDNQYLTADLAGNTCTKLAKEWGFFPLMLIGCAADSSNRYERQGRDFAELERASSGLAVAISKIQTPKRLCLGKIQTLTLSHEVVNDKPIYDRKLRTMINDLRSGVIKAIGSQSVEAIVEKCEDQLNKPQFHDLLSLQLLDIGELRLFVFPGELASAGAKKLTSFDRLEHHHHHH”, the “soluble on expression in E. coli” value is “not soluble”. Consider “MATHGQTCARPMCIPPSYADLGKAARDIFNKGFGFGLVKLDVKTKSCSGVEFSTSGSSNTDTGKVTGTLETKYKWCEYGLTFTEKWNTDNTLGTEIAIEDQICQGLKLTFDTTFSPNTGKKSGKIKSSYKRECINLGCDVDFDFAGPAIHGSAVFGYEGWLAGYQMTFDSAKSKLTRNNFAVGYRTGDFQLHTNVNDGTEFGGSIYQKVCEDLDTSVNLAWTSGTNCTRFGIAAKYQLDPTASISAKVNNSSLIGVGYTQTLRPGVKLTLSALVDGKSINAGGHKVGLALELEA”, for which the “soluble on expression in E. coli” value is reported as “soluble”.

On to “MLLEPLKQLKQADARLNMTQGVLEGVVGEELGVLPGMDSIFSMLELERLVGFFRQATRKNHKGKPFDVIIYDGISTEETLRMIGLSSKTRLYAKYLRSLAEKTDLGRLTSPSIMRFVDESMNINSNKSPFDGMTSPAMWDTLERFLETGASAWRDPERFRSFLVMDPNNPMSVKAALRYWGCTVQAGSHVSGAFAISSSHLTSQIPKADFVPLPFASASVPFTITGLDWDKILLDQANSSIRELLSETVSHGTSLTQTVMFDTAKKLVTLFMPGFEKSEIKLYQYRGGSELLIEAGDQRRVIHLPSQIQGKVGGAKFVDRSLIVTMR”, for which the “soluble on expression in E. coli” value is recorded as “soluble”.

In the case of “MAELEKTFALIKPDAVRAGKAQEIMQLIELNGFTIIAKQKLQLTRARAEEFYGEHKGKEFFPKLVNFMTSGPIWALVLAKPGAILAWRALMGPTNVFKARAEQPKCLRALYGTDGTQNATHGSDSPISAAREIKFFFPTLSGDPTIYAEPTAAAEYITKRIQPALAKALAALAREKPSADKFEAITFVAGYLLQNNPNKPKVLMPDEWDPALMGDDEDDEADFINARLAAPTGNDGATKAEFDAMVEAAKADTGGAAPAQEFVYPDSKPTTPVVPAPPAPGSKPPSASGARPQSARPTSARPPSASAAPPAPLAPVPPPASSSRPASGSGRPPSATARPPSATPPPPPPAVELEEADDPAQLDEAATKVQAAFRGYQARKEVAVMRSEAQPGEAAAEPEQEAELQPEAEPEPQPEGEQEPQPQASASSSFLPDGVTEEMAAEAATRVQAHMRGHLARKQVAAIKAQQAAPAVAESSEALAEPEPQPEAEAEPQPQASVSSSFLPDGVTEEMAAEAATLVQAHMRGHLARKQVAAIKAQQAAPAVAESSEAQAEAEQTEAEAEPQPDAEAEAGAAEGEAEPEPEAAE”, the “soluble on expression in E. coli” value is reported as “not soluble”. As for “MGHHHHHHSHMAAAFRKAAKSRQREHRERSQPGFRKHLGLLEKKKDYKLRADDYRKKQEYLKALRKKALEKNPDEFYYKMTRVKLQDGVHIIKETKEEVTPEQLKLMRTQDVKYIEMKRVAEAKKIERLKSELHLLDFQGKQQNKHVFFFDTKKEVEQFDVATHLQTAPELVDRVFNRPRIETLQKEKVKGVTNQTGLKRIAKERQKQYNCLTQRIEREKKLFVIAQKIQTRKDLMDKTQKVKVKKETVNSPAIYKFQSRRKR”, the “soluble on expression in E. coli” value is on record as “soluble”.

As for “MIDINLIREKPDYVKERLATRDKELVSLVDKVLELDKRRREIIKRLEALRSERNKLSKEIGKLKREGKDTTEIQNRVKELKEEIDRLEEELRKVEEELKNTLLWIPNLPHPSVPVGEDEKDNVEVRRWGEPRKFDFEPKPHWEIGERLGILDFKRGAKLSGSRFTVIAGWGARLERALINFMLDLHTKKGYKEICPPHLVKPEILIGTGQLPKFEEDLYKCERDNLYLIPTAEVPLTNLYREEILKEENLPIYLTAYTPCYRREAGAYGKDIRGIIRQHQFDKVELVKIVHPDTSYDELEKLVKDAEEVLQLLGLPYRVVELCTGDLGFSAAKTYDIEVWFPSQNKYREISSCSNCEDFQARRMNTRFKDSKTGKNRFVHTLNGSGLAVGRTLAAILENYQQEDGSVVVPEVLRDYVGTDVIRPE”, the “soluble on expression in E. coli” value is “soluble”. Next, “EVVVTGYGDFKKATYTGSASVLNTDKLESLPVVSVAQMMEANIPGLSSVASSSQPGSKATVRVRGIASMNASTEPLYVLDGVPVASRDMSGLSANASAGGLGLIETLNPADIESITVLKDAASASLYGAKGSNGVILI”: “not soluble”. Next, “MSLSYRIDGLQYANWSEKIFRQLRAGNVDAVHVTIAYHESFRETVLNFEKWNRWFEQYPDLIMKGQWASDIDTARETGRTAIFFGFQNPSPIEDDIGLVEILHTLGARFMQLTYNNQSLLATGCYEAEDAGITRMGRQVIKEMNRVGLVVDMSHSADRSTIEAVEISERPIAITHANPHDWAPALRNKRDDVIRAVTENGGMLGFSVYPHHLKDKSDCTLDSFCEMIARTAERYGVDHLGIGTDLCQDQPDSVVEWMRTGRWSKEIDFGEGSASAPGFPPMPHWFEDNRDFGNIENGLRATGLNKDEVAGIMGGNWYRFFAQNFVPQGEGHHHHHH”: “soluble”. The result for “MSANGCCCCGGVDSREQKLNEIIEKYKNTKGALVPVLHEAQEVYGYLPLEVQKKIAEGLNIPLAEVYGVVTFYTQFSLNPKGKYKIQVCMGTACYVKGSGAILEKLKEKLEIDVGECTSDGKFSLEACRCIGACGLAPVIMINDDVYGRLVPDDIEGIIEKYKKE” reads “soluble”; that for “MVQHQMFDPGVADLLDTDILTSPSKRKRKLKIDDISTSDRSELEDYIVLENVYRMFGITFFPLVDPIDLKIKDASGEIFVDREMLGIRLEVFSERTSQFEKPHYVLLKKRIKSNSWFLFKHTIPSFIDVQGIFDDTNGGLVISHDDAYLFAKRVFLQLVEVQKRRQIFKDLEAKKIIHDLDLDLESSMVSFFVKDIKVELFVKQNEIVSCSILDDIHDFSQNNKSKWEIALLGSLDDLELKLNHSFATIFK”, “not soluble”. Regarding “MGSDKIHHHHHHAICLRDDIGNYVIKWETDPVMEGIVKMTVSDNPDLFTNESPIIYANIKDGVATYITNDNISRKYFRLSFNDKYPRIIGARSAVMDSVQNFRDLGGYTSTNGKTVKWGKVFRSGELSSLSEWDSIRLDNLGIKTIIDLRTNQETLTAPIKYTKANILQIPISVGKIADAPQRVIEGRMRKGDAGVYMEDEYLQFVTDNTDQFAKVLEQFQNEDNYPILISCSYGKDRTGFLTAMLLAALDIPRDAIMEDYLTSNQYIDTSHLADIVKHLSTDAQESITVFLTANEGLMDLAFHKIKKEYGSTEKYLSKGLRLTDKKRERLKDILLY”, the “soluble on expression in E. coli” value was “not soluble”.
